According to doi:10.1101/2022.09.29.510132 (bioRxiv, 2022):

B1: UBQLN1 UBA (541-589) (domain or fragment, UniProt Q9UMX0 541-589, looked up)
chain: QNPEVRFQQQLEQLSAMGFLNREANLQALIATGGDINAAIERLLGSQPS
notes: The construct contains a tyrosine residue in the tag to enable quantitation at A280; source: E. coli BL21 (DE3), purified (glutathione sepharose, PreScission cleavage, SEC); not shown: GST, N-terminal, cleaved
B2: AZUL-mEGFP (domain or fragment, UniProt Q05086 24-87, looked up)
chain: MKRAAAKHLIERYYHQLTEGCGNEACTNEFCASCPTFLRMDNNAAAIKALELYKINAKLCDPHP
notes: E6AP isoform II residues 24-87 (AZUL); AZUL and mEGFP are separated by a TEV protease cut site; A206K is numbered relative to avGFP (A207K relative to EGFP); also called E6AP isoform II 24-87 with a C-terminal mEGFP; source: E. coli BL21 (DE3), purified (glutathione sepharose, PreScission cleavage, SEC); not shown: GST, N-terminal, cleaved; mEGFP (EGFP with A206K), C-terminal, kept

Tests used:
E6AP AZUL = biological target: T1, E6AP AZUL (UniProt Q05086 24-87); experiment: NMR titration; unlabeled UBQLN1 constructs added to 0.05 mM 15N-E6AP AZUL; 1H-15N HSQC; Buffer E (10 mM MOPS pH 6.5, 50 mM NaCl, 5 mM DTT, 10 μM zinc sulfate), 25 °C; conditions: both partners purified
T1 construct: AZUL domain of E6AP/UBE3A; Used unlabeled or 15N-labeled; source: expressed and purified as described previously (Buel et al., 2020)
T1 sequence: B2 chain

UBQLN2 = biological target: T2, UBQLN2 (UniProt Q9UHD9 1-624); experiment: recruitment to phase-separated droplets (confocal fluorescence microscopy, in vitro); 50 µM UBQLN2 construct with 25 µM AZUL-mEGFP or EGFP in 20 mM NaPO4, 200 mM NaCl, 2.5 µM ZnSO4 (pH 6.8) at 37 °C; conditions: both partners purified
T2 construct: UBQLN2 full-length construct; Phase separates into droplets at 37 °C with 200 mM NaCl; also called UBQLN2 full-length; source: E. coli BL21 (DE3), purified (glutathione sepharose, PreScission cleavage, SEC); not shown: GST, N-terminal, cleaved

Row | binding result (E6AP AZUL) | binding result (UBQLN2) | Binder
1 | binds | – | B1
2 | – | binds | B2
